The record followed here is US20210155689A1 (SHANGHAI PHARMAEXPLORER, published 2021).

Residue numbers refer to the chain shown, from its start.

In test [1] the target is T1, human LAG-3 on cells (HEK293-hLAG-3 stable cell line) (human, UniProt P18627 23-525).
T1 sequence: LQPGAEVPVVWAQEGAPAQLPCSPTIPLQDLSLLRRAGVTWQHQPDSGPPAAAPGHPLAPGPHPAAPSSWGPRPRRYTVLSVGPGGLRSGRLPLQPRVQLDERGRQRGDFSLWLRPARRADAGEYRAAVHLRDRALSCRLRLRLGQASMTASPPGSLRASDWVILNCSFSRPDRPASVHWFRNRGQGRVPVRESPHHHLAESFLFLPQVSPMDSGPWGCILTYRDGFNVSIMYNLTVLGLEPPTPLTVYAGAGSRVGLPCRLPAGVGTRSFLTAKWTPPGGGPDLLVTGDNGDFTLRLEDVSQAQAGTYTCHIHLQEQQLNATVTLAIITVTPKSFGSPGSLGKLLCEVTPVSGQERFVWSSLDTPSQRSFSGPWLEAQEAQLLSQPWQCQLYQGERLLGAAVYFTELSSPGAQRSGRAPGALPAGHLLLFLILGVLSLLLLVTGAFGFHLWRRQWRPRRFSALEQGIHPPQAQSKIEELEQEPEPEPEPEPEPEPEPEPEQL
Kind of test: FACS, HEK293-hLAG-3, antibody 1.600 nM. An excerpt:
(§1) The pIRES plasmid with the monkey-derived full-length gene was transfected into the HEK293 cell line to construct a HEK293 stable cell line containing monkey LAG-3 (herein referred to as HEK293-cLAG-3 stable cell line). The HEK293-hLAG-3 stable cell line and HEK293-cLAG-3 stable cell line were expanded in a T-75 cell culture flask to a 90% confluence. The medium was aspirated, and the cells were washed with HBSS (Hanks' Balanced Salt Solution) 1-2 times, then treated with a enzyme-free cell dissociation fluid (Versene solution: Life technology) and the cells were collected. The cells were washed with HBSS buffer for 1-2 times. After counted, the cells were diluted with HBSS to 1-2×10⁶ cells per ml, added with 1% goat serum blocking solution, incubated on ice for 20-30 minutes, and then washed with HBSS for 2 times by centrifugation. The collected cells were suspended in the FACS buffer (HBSS+1% BSA) to 2×10⁶ cells/ml, added as 100 microliters per well to a 96-well FACS reaction plate, added with 100 microliters per well of the antibody sample to be tested, incubated on ice for 1-2 hours. The plate was washed twice with the FACS buffer by centrifugation, added with 100 microliters of fluorescent (Alexa 488)-labeled secondary antibodies per well, and incubated on ice for 0.5-1.0 hours. The plate was washed 2-3 times with FACS buffer by centrifugation, added with 100 μl fixative solution (4% Paraformaldehyde) per well to suspend the cells. 5-10 minutes later, it was washed 1-2 times with FACS buffer by centrifugation. The cells were suspended with 100 microliters of FACS buffer, FACS (FACSCalibur, BD) was used for detection and the results were analyzed.

The target of test [2] is T2, monkey LAG-3 (full length, on the cell surface) (monkey, UniProt P18627 24-525 (human entry)).
T2 construct: also called HEK293-cLAG-3; monkey LAG-3 protein on the cell surface
T2 chain: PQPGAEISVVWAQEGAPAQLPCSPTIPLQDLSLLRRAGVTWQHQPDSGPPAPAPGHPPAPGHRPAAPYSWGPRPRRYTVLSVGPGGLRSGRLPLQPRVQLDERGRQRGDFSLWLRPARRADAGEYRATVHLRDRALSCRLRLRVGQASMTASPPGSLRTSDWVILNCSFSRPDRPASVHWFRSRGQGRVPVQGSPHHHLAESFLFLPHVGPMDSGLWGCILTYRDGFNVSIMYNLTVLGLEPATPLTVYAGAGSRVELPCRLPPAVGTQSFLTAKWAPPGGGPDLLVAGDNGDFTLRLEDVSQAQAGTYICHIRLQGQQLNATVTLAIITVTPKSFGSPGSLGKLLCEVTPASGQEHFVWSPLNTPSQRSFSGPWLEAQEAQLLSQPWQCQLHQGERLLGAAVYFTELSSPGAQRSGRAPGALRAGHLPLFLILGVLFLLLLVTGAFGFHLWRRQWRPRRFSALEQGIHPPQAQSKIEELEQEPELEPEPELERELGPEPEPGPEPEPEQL
Kind of test: FACS, HEK293-cLAG-3; 200.000 nM.
Description: as §1
(In general: Flow cytometry measures light scatter and fluorescence of single cells or particles in a stream.)

Test [3] concerns the target T3, mouse LAG-3 protein with hFc tag (mLAG-3-hFc protein) (mouse; human, UniProt Q61790 24-442).
T3 construct: Made in HEK293 cells; also called mouse LAG-3 extracellular domain protein; not shown: human IgG Fc fragment (hFc) of the pCpC vector
T3 sequence: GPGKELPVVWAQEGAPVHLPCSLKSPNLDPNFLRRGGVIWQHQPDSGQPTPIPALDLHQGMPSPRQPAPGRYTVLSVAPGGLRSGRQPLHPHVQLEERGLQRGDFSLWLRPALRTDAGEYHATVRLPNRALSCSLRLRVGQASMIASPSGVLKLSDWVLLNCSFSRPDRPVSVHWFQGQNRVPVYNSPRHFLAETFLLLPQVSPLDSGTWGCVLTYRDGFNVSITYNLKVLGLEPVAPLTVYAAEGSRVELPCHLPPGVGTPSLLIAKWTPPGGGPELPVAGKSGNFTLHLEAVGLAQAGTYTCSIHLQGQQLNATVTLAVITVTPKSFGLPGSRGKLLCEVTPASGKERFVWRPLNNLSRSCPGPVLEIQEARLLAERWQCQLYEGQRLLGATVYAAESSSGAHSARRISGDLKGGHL
Kind of test: ELISA, mLAG-3-hFc coated. The procedure:
The plate was sealed with plastic film and incubated overnight at 4° C. The plate was washed 2 times with the plate washing solution (PBS+0.01% Tween20) on the next day, and added with the blocking solution (PBS+0.01% Tween20+1% BSA) and blocked at room temperature for 1-2 hours. The blocking solution was poured out, and the plate was added with 50-100 μl of the antibody sample to be tested to each well, incubated at 37° C. for 1-2 hours, and washed 2-3 times with a plate washing solution (PBS+0.01% Tween20). HRP (horseradish peroxidase) labeled secondary antibody was added, and the plate was incubated at 37° C. for 1-2 hours, and washed 2-3 times with a plate washing solution (PBS+0.01% Tween20). 100 μl of TMB substrate was added to each well. After incubated at room temperature for 15-30 minutes, the plate was added with 100 μl of stop solution (1.0N HCl) to each well.
A general note: In an ELISA, binding on a coated surface is turned into a signal by an enzyme label.

B1: 556F6B8 mouse-human chimeric antibody (antibody, V domains shown)
VH: RVQLKQSGPGLVQPSQSLSITCTVSGFSLIKYGVHWVRQSPGEGLEWLGVIWRGGITDYNAAFMSRLSITKDNSKSQVFFKMNSLQADDTAIYYCAKWDGPLAMDYWGQGTSVTVSS
VL: DIVMTQSHKFLSTSVGDRVSITCKASQDVGTTVAWYQQKPGQSPKLLIYWASTRHTGVPDRFTGSGSGTDFTLTISNVQSEDLADYFCQQYSSYPYTFGGGTKLEIK
notes: also called mAb123-556F6B8; 556F8B8
In turn, B1 gave a Mean fluorescence intensity in test [1] of 39.1.

B2: 556F6B8 (mouse antibody purified from hybridoma) (antibody, V domains shown)
VH: B1 VH
VL: B1 VL
notes: also called mAb123-556F6B8
For B2, the Mean fluorescence intensity in test [2] came to 52.2 MFI.

B3: 556F6B8 (LAG-3 mouse-human chimeric antibody) (antibody, V domains shown)
VH: B1 VH
VL: B1 VL
notes: also called 556F8B8
B3: the binding result in test [3] is “no binding (tested: 66.6670 nM)”.

B4: 405B8H3 (mouse antibody purified from hybridoma) (antibody, V domains shown)
VH: QVQLQQSGAELVRPGASVTLSCKASGYTFTDYEMHWVKQTPVHGLEWIGATDPETGNSAYNQKFKGKAIMTADKSSSTAYMELRSLTSEDSAVYYCISTGWNDWGQGTSLTVSS
VL: DIKMTQSPSSMYASLGERVTITCKASQDINSYLSWFQQKPGKSPKTLIYRADRLLDGVPSRFSGSGSGQDYSLTISSLEYGDMGIYYCLQYDEFPYTFGGGTKLEIK
notes: also called mAb103-405B8H3; 405B81-13
Turning to B4, in test [2], the Mean fluorescence intensity was found to be 139 MFI.

B5: 105F1E10 mouse-human chimeric antibody (antibody, V domains shown)
VH: EVQLQQSGPELVKPGASVKMSCRASGYTFTDFKMHWMKQSHGKSLEWIGYIAPNNGGTAYNQKFRGKATLTVNESSNTAYMELRSLTSEDSAVYYCVDWDDVDYWGQGTTLTVSS
VL: B4 VL with P40S, D52N, L55V, G81E, D92V, Y96L, G100A, I106L
notes: also called mAb009-105F1E10
Consider B5, for which the Mean fluorescence intensity in test [1] was 34.7.

B6: 105F1E10 (mouse antibody purified from hybridoma) (antibody, V domains shown)
VH: B5 VH
VL: B4 VL with P40S, D52N, L55V, G81E, D92V, Y96L, G100A, I106L
notes: also called mAb009-105F1E10
B6 registered a Mean fluorescence intensity in test [2] of 120 MFI.

B7: 405B8H3 (LAG-3 mouse-human chimeric antibody) (antibody, V domains shown)
VH: B4 VH
VL: B4 VL
notes: also called mouse-human chimeric antibody 405B8H3
Turning to B7, the binding result in test [3] is “no binding (tested: 66.6670 nM)”.

B8: 405B8H3 mouse-human chimeric antibody (antibody, V domains shown)
VH: B4 VH
VL: B4 VL
notes: also called mAb103-405B8H3
B8 displayed a Mean fluorescence intensity in test [1] of 62.3.

B9: 105F1E10 (LAG-3 mouse-human chimeric antibody) (antibody, V domains shown)
VH: B5 VH
VL: B4 VL with P40S, D52N, L55V, G81E, D92V, Y96L, G100A, I106L
Consider B9, for which the binding result in test [3] is given as “no binding (tested: 66.6670 nM)”.

B10: 409D4E10 mouse-human chimeric antibody (antibody, V domains shown)
VH: B4 VH with Y27N, G56D, S58T, M70L, A72T, S98T, T99S
VL: B4 VL with D52N, G81E, D92N
notes: also called mAb112-409D4E10
The molecule B10 gave a Mean fluorescence intensity in test [1] of 56.8.

B11: 409B11E12 mouse-human chimeric antibody (antibody, V domains shown)
VH: B4 VH with P41T, G56S, N57Y, M70L, S98A
VL: B4 VL with I2L, D52N, G81E
notes: also called mAb104-409B11E12
Take B11: the Mean fluorescence intensity in test [1] amounted to 69.

B12: 409D4E10 (mouse antibody purified from hybridoma) (antibody, V domains shown)
VH: B4 VH with Y27N, G56D, S58T, M70L, A72T, S98T, T99S
VL: B4 VL with D52N, G81E, D92N
notes: also called mAb112-409D4E10
As to B12, the Mean fluorescence intensity in test [2] is 153 MFI.

B13: 409B11E12 (LAG-3 mouse-human chimeric antibody) (antibody, V domains shown)
VH: B4 VH with P41T, G56S, N57Y, M70L, S98A
VL: B4 VL with I2L, D52N, G81E
Turning to B13, the binding result in test [3] is reported as “no binding (tested: 66.6670 nM)”.

B14: 409B11E12 (mouse antibody purified from hybridoma) (antibody, V domains shown)
VH: B4 VH with P41T, G56S, N57Y, M70L, S98A
VL: B4 VL with I2L, D52N, G81E
notes: also called mAb104-409B11E12
B14 showed a Mean fluorescence intensity in test [2] of 134 MFI.

B15: 409D4E10 (LAG-3 mouse-human chimeric antibody) (antibody, V domains shown)
VH: B4 VH with Y27N, G56D, S58T, M70L, A72T, S98T, T99S
VL: B4 VL with D52N, G81E, D92N
In the case of B15, in test [3], the binding result is reported as “no binding (tested: 66.6670 nM)”.
